Laboratory results from patent US20220185898A1 (Alector, published 2022).

Assays:
[1] = molecular target: T1, human Sortilin expressed on 293 / HEK293T cells (human, UniProt Q99523 78-830); assay: FACS, 293 cells;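 further: antibodies at 10 µg/ml bound to cells for 1 h on ice, detected with PE-labelled anti-human secondary antibody by flow cytometry, reported as mean fluorescence intensity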
T1 construct: full-length recombinant human Sortilin; also called hSort; SORT1
Protocol: (§1) Cells were harvested, plated at 10⁵/ml in a 96 well plate, washed, and incubated in 100 μl PBS containing 10 μg/ml Mab and 2% FBS for 1 hour in ice. Cells were then washed twice and incubated in 100 μl PBS+2% FBS containing 5 μg/ml PE-conjugated anti-human secondary antibody for 30 minutes in ice. Cells were washed twice in cold PBS and data was acquired on a BD FACS Canto. Data analysis and calculation of MFI values was performed with FlowJo (TreeStar) software version 10.0.7.

[2] = molecular target: T2, mouse Sortilin expressed on 293 / HEK293T cells (mouse, UniProt Q6PHU5 74-825); assay: FACS, 293 cells;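 further: antibodies at 10 µg/ml bound to cells for 1 h on ice, detected with PE-labelled anti-human secondary antibody by flow cytometry, reported as mean fluorescence intensity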
T2 construct: full-length recombinant mouse Sortilin; also called mSort; msSort
Protocol: as §1

[3] = molecular target: T3, mouse Sortilin Fc fusion protein (mouse; human, UniProt Q6PHU5 74-754); assay: ForteBio, avid;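 further: whole IgG captured on AHQ sensors, then contacted with Sortilin Fc fusion antigen at 100 nM, followed by an off-rate phase in buffer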
T3 construct: whole entry named; also called mSort-Fc
Protocol: (§2) The affinity for the Sortilin antibodies was determined by measuring their KD by ForteBio. […] Briefly, ForteBio affinity measurements were performed by loading IgGs on-line onto AHQ sensors. Sensors were equilibrated off-line in assay buffer for 30 min and then monitored on-line for 60 seconds for baseline establishment. For avid binding measurement, sensors with loaded IgGs were exposed to 100 nM antigen (human or mouse Sortilin Fc fusion) for 3, afterwards they were transferred to assay buffer for 3 min for off-rate measurement.
(§3) The binding affinity of each anti-Sortilin antibody was determined by measuring their KD by ForteBio or MSD-SET at room temperature. […] Briefly, ForteBio affinity measurements were performed by loading IgGs on-line onto AHQ sensors. Sensors were equilibrated off-line in assay buffer for 30 min and then monitored on-line for 60 seconds for baseline establishment. Sensors with loaded IgGs were exposed to 100 nM antigen for 5 minutes, then transferred to assay buffer for 5 min for off-rate measurement. Kinetics were analyzed using the 1:1 binding model.

[4] = molecular target: T4, human Sortilin Fc fusion protein (human, UniProt Q99523 78-755); assay: ForteBio, avid;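 further: whole IgG captured on AHQ sensors, then contacted with Sortilin Fc fusion antigen at 100 nM, followed by an off-rate phase in buffer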
T4 construct: whole entry named; also called hSort-Fc
Protocol: as §2, §3

Row | MFI [1] | MFI [2] | Kd [3] [nM] | Kd [4] [nM] | Binder
1 | 11100 | 25600 |  |  | S-6 (antibody, V domains shown, IgG; also called S-06) VH: not shown VL: EIVMTQSPATLSVSPGERATLSCRASQSVSSNLAWYQQKPGQAPRLLIYGASTRATGIPARFSGSGSGTEFTLTISSLQSEDFAVYYCQQVANYPRTFGGGTKVEIK
2 | 7770 | 15100 | 0.8 | 2.59 | S-58 (antibody, V domains shown, IgG) VH: QVQLQESGPGLVKPSETLSLTCAVSGYSISSGYYWGWIRQPPGKGLEWIGSIYHSGNTYYNPSLKSRVTISVDTSKNQFSLKLSSVTAADTAVYYCARGPPELGKMYFQHWGQGTLVTVSS VL: EIVLTQSPATLSVSPGERATLSCRASQSVSSNLAWYQQKPGQAPRLLIYGASTRATGIPARFSGSGSGTEFTLTISSLQSEDFAVYYCQQDRKGPLTFGGGTKVEIK
3 | 9300 |  |  | 1.79 | S-83 (antibody, V domains shown, IgG) VH: QLQLQESGPGLVKPSETLSLTCTVSGGSISSSSYYWGWIRQPPGKGLEWIGSIYYSGSTYYNPSLKSRVTISVDTSKNQFSLKLSSVTAADTAVYYCARGSPTWLRDYYMDVWGKGTTVTVSS VL: EIVLTQSPATLSVSPGERATLSCRASQSVSSNLAWYQQKPGQAPRLLIYGASTRATGIPARFSGSGSGTEFTLTISSLQSEDFAVYYCQQYNAFPPTFGGGTKVEIK
4 | 10300 | 22200 | 2.16 | 6.98 | S-9 (antibody, V domains shown, IgG) VH: QVQLVQSGAEVKKPGASVKVSCKASGYTFTSYGISWVRQAPGQGLEWMGWISAYNGNTNYAQKLQGRVTMTTDTSTSTAYMELRSLRSDDTAVYYCARDPGGYGPTLYYYYGMDVWGQGTTVTVSS VL: EIVMTQSPATLSVSPGERATLSCRASQSVSSNLAWYQQKPGQAPRLLIYGASTRATGIPARFSGSGSGTEFTLTISSLQSEDFAVYYCQQYNIYPLTFGGGTKVEIK
5 | 9120 | 15700 | 1.55 | 4.5 | S-4 (antibody, V domains shown, IgG) VH: not shown VL: EIVMTQSPATLSVSPGERATLSCRASQSVSSNLAWYQQKPGQAPRLLIYGASTRATGIPARFSGSGSGTEFTLTISSLQSEDFAVYYCQQFRVLPPTFGGGTKVEIK
6 | 7480 | 21800 | 2.45 | 4.26 | S-61 (antibody, V domains shown, IgG) VH: QVQLQESGPGLVKPSETLSLTCAVSGYSISSGYYWGWIRQPPGKGLEWIGSIYHSGSTYYNPSLKSRVTISVDTSKNQFSLKLSSVTAADTAVYYCARGSPRFYYGSGSYLDLFDIWGQGTMVTVSS VL: EIVMTQSPATLSVSPGERATLSCRASQSVSSNLAWYQQKPGQAPRLLIYGASTRATGIPARFSGSGSGTEFTLTISSLQSEDFAVYYCQEYLNYPITFGGGTKVEIK
7 | 8580 | 1890 | 20.1 | 4.29 | S-69 (antibody, V domains shown, IgG) VH: QVQLQESGPGLVKPSQTLSLTCTVSGGSISSGGYYWSWIRQHPGKGLEWIGYIYYSGSTYYNPSLKSRVTISVDTSKNQFSLKLSSVTAADTAVYYCARDRGGTHFGADHYYYGMDVWGQGTMVTVSS VL: EIVMTQSPATLSVSPGERATLSCRASQSVSSSLAWYQQKPGQAPRLLIYGASTRATGIPARFSGSGSGTEFTLTISSLQSEDFAVYYCQQAADWPITFGGGTKVEIK
8 | 7930 |  | 24.2 |  | S-64 (antibody, V domains shown, IgG) VH: QVQLQESGPGLVKPSETLSLTCAVSGYSISSGYYWGWIRQPPGKGLEWIGSIYHSGSTYYNPSLKSRVTISVDTSKNQFSLKLSSVTAADTAVYYCARAEHRGPRYFDLWGRGTLVTVSS VL: DIQMTQSPSSLSASVGDRVTITCRASQSINSYLNWYQQKPGKAPKLLIYAASSLQSGVPSRFSGSGSGTDFTLTISSLQPEDFATYYCQQLDSTPITFGGGTKVEIK
9 | 8070 | 17900 | 6.9 |  | S-65 (antibody, V domains shown, IgG) VH: QVQLQESGPGLVKPSETLSLTCAVSGYSISSGYYWGWIRQPPGKGLEWIGSIYHSGSTYYNPSLKSRVTISVDTSKNQFSLKLSSVTAADTAVYYCAREGQLPTGTFDYWGQGTLVTVSS VL: not shown
10 | 6280 |  |  | 3.8 | S-16 (antibody, V domains shown, IgG) VH: QVQLVQSGAEVKKPGSSVKVSCKASGGTFSSYAISWVRQAPGQGLEWMGGIIPIFGTANYAQKFQGRVTITADESTSTAYMELSSLRSEDTAVYYCARSPYSGTRDFDLWGRGTLVTVSS VL: DIQMTQSPSSVSASVGDRVTITCRASQGISSWLAWYQQKPGKAPKLLIYAASNLQSGVPSRFSGSGSGTDFTLTISSLQPEDFATYYCQQGNSYPITFGGGTKVEIK
11 | 9680 | 4180 | 19 |  | S-76 (antibody, V domains shown, IgG) VH: QVQLQESGPGLVKPSQTLSLTCTVSGGSISSGGYYWSWIRQHPGKGLEWIGSIYYSGSTYYNPSLKSRVTISVDTSKNQFSLKLSSVTAADTAVYYCARGVGIQQQLVLGFDPWGQGTLVTVSS VL: DIQMTQSPSSLSASVGDRVTITCRASQSISSFLNWYQQKPGKAPKLLISAASSLQSGVPSRFSGSGSGTDFTLTISSLQPEDFATYYCQQSYREPITFGGGTKVEIK
12 | 9240 | 15400 |  | 4.4 | S-84 (antibody, V domains shown, IgG) VH: QLQLQESGPGLVKPSETLSLTCTVSGGSISSSSYYWGWIRQPPGKGLEWIGSISYSGSTYYNPSLKSRVTISVDTSKNQFSLKLSSVTAADTAVYYCARGGTTWLVADVWGQGTMVTVSS VL: not shown
13 | 7120 | 7930 | 10.6 | 3.51 | S-78 (antibody, V domains shown, IgG) VH: QLQLQESGPGLVKPSETLSLTCTVSGGSISSSDYYWGWIRQPPGKGLEWIGSIYYSGSTYYNPSLKSRVTISVDTSKNQFSLKLSSVTAADTAVYYCARSLAMSGAYFDLWGRGTLVTVSS VL: not shown
14 | 9760 | 18800 |  | 9.35 | S-12 (antibody, V domains shown, IgG) VH: QVQLVQSGAEVKKPGASVKVSCKASGYTFTSYGISWVRQAPGQGLEWMGWISAYNGNTNYAQKLQGRVTMTTDTSTSTAYMELRSLRSDDTAVYYCARDLPKYKWGWFDPWGQGTLVTVSS VL: not shown
15 | 8940 | 16600 |  | 2.2 | S-81 (antibody, V domains shown, IgG) VH: QLQLQESGPGLVKPSETLSLTCTVSGGSISSSSYYWGWIRQPPGKGLEWIGSIYYSGSTYYNPSLKSRVTISVDTSKNQFSLKLSSVTAADTAVYYCARERWDLGHGMDVWGQGTTVTVSS VL: not shown
16 | 8070 | 7670 | 19.7 | 3.33 | S-73 (antibody, V domains shown, IgG) VH: QVQLQESGPGLVKPSQTLSLTCTVSGGSISSGTYYWSWIRQHPGKGLEWIGYIYYSGSTYYNPSLKSRVTISVDTSKNQFSLKLSSVTAADTAVYYCARGVGRYRVADYWGQGTLVTVSS VL: EIVLTQSPATLSLSPGERATLSCRASQSVSSYLAWYQQKPGQAPRLLIYDASNRATGIPARFSGSGSGTDFTLTISSLEPEDFAVYYCQQASVYPPITFGGGTKVEIK
17 | 9210 | 7300 |  | 3.05 | S-74 (antibody, V domains shown, IgG) VH: QVQLQESGPGLVKPSQTLSLTCTVSGGSISSGTYYWSWIRQHPGKGLEWIGYIYYSGSTYYNPSLKSRVTISVDTSKNQFSLKLSSVTAADTAVYYCARGVGRYRVADYWGQGTLVTVSS VL: EIVMTQSPATLSLSPGERATLSCRASQSVSSYLAWYQQKPGQAPRLLIYDSSNRATGIPARFSGSGSGTDFTLTISSLEPEDFAVYYCQQETNMPPITFGGGTKVEIK
18 | 9020 | 20900 |  | 2.88 | S-26 (antibody, V domains shown, IgG) VH: EVQLVESGGGLVKPGGSLRLSCAASGFTFSSYSMNWVRQAPGKGLEWVSSISSSSSYIYYADSVKGRFTISRDNAKNSLYLQMNSLRAEDTAVYYCARDRLGRGYKWNWFDPWGQGTLVTVSS VL: DIQMTQSPSSVSASVGDRVTITCRASQGIDSWLAWYQQKPGKAPKLLIYAASSLQSGVPSRFSGSGSGTDFTLTISSLQPEDFATYYCQQGNSLPPITFGGGTKVEIK
19 | 9480 | 21400 | 1.13 | 2.28 | S-55 (antibody, V domains shown, IgG) VH: QVQLQESGPGLVKPSETLSLTCAVSGYSISSGYYWGWIRQPPGKGLEWIGSIYHSGSTYYNPSLKSRVTISVDTSKNQFSLKLSSVTAADTAVYYCARGRPELGWDKYFQHWGQGTLVTVSS VL: DIQMTQSPSSVSASVGDRVTITCRASQGISRWLAWYQQKPGKAPKLLIYAASSLQSGVPSRFSGSGSGTDFTLTISSLQPEDFATYYCQQANALPTFGGGTKVEIK
20 | 12200 | 21900 | 1.21 | 4.12 | S-51 (antibody, V domains shown, IgG) VH: QVQLVESGGGVVQPGRSLRLSCAASGFTFSSYGMHWVRQAPGKGLEWVAVISYDGSNKYYADSVKGRFTISRDNSKNTLYLQMNSLRAEDTAVYYCAKGLEYYDSSRLYYPYYYYMDVWGKGTTVTVSS VL: EIVLTQSPATLSLSPGERATLSCRASQSVSSYLAWYQQKPGQAPRLLIYDASKRATGIPARFSGSGSGTDFTLTISSLEPEDFAVYYCQQRSNYPITFGGGTKVEIK
21 | 7410 | 2630 |  | 2.43 | S-40 (antibody, V domains shown, IgG) VH: not shown VL: EIVMTQSPATLSLSPGERATLSCRASQSVSSYLAWYQQKPGQAPRLLIYDASNRATGIPARFSGSGSGTDFTLTISSLEPEDFAVYYCQQRSALPFTFGGGTKVEIK
